Measured values from article PMC9898758, “Analysis of a degron-containing reporter protein GFP-CL1 reveals a role for SUMO1 in cytosolic protein quality control” (The Journal of Biological Chemistry, 2022).

Target: T1, MBP-Slx5 (UniProt P32828 1-619)
T1 construct: Plasmid was a gift from Dr Oliver Kerscher; also called MBP-tagged SLX5; source: E. coli Rosetta, purified (amylose resin)
T1 sequence (looked up): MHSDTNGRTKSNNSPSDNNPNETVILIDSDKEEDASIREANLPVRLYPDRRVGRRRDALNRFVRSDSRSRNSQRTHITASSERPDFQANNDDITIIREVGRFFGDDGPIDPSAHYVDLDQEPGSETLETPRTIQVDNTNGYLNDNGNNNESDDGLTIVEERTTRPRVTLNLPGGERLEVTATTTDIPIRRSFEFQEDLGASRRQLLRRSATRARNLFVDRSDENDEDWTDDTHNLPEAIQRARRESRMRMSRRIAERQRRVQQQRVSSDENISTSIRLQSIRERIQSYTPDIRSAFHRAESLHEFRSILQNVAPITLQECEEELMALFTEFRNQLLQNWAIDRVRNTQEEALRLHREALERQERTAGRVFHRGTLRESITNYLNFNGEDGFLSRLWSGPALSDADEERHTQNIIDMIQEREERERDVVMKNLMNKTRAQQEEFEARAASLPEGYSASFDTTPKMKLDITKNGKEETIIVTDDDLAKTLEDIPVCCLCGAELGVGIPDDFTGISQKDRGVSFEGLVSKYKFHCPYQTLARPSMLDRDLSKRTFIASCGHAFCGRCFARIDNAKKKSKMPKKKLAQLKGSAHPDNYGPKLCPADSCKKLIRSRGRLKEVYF
Experiment: pull-down; MBP-Slx5 or MBP alone immobilised on amylose beads, incubated with purified GST, GST-Smt3 or GST-Smt3-K38/40A; washes, SDS-PAGE, immunoblot with anti-MBP and anti-GST
Conditions: both partners purified

fold reduction in binding against WT Smt3: > 5 fold
B1: GST-tagged Smt3-K38/40A mutant (natural protein, S. cerevisiae)
chain: EVKPEVKPETHINLKVSDGSSEIFFAIAKTTPLRRLMEAFAKRQGKEMDSLRFLYDGIRIQADQTPEDLDMEDNDIIEAHREQIGG
notes: Smt3 of S. cerevisiae with K38A and K40A; SMT3^K38/40A cloned into pGEX-6p-1; also called GST-SMT3^K38/40A; GST-Smt3-K30/40A; source: E. coli Rosetta, purified (Glutathione Sepharose 4B)
